Patent US20220313738A1 (NANJING LEGEND BIOTECH, published 2022)
Positions count from the first letter of the chain named.

B1: wildtype SIV Nef (other)
chain: MGSSNSKRQQQGLLKLWRGLRGKPGADWVLLSDPLIGQSSTVQEECGKALKKSWGKGKMTPDGRRLQEGDTFDEWDDDEEEVGFPVQPRVPLRQMTYKLAVDFSHFLKSKGGLDGIYYSERREKILNLYALNEWGIIDDWQAYSPGPGIRYPRVFGFCFKLVPVDLHEEARNCERHCLMHPAQMGEDPDGIDHGEVLVWKFDPKLAVEYRPDMFKDMHEHAKR
B2: SIV Nef M116 (other)
chain: B1 chain with L178A, M179A

Assays:
Assay in all cases: cell-based or functional assay
[1] = target: M665 (CD8α SP-BCMA scFv-CD8α hinge-CD8α TM-ISD)
[2] = target: M666 (CD8α SP-BCMA scFv-CD8α hinge-CD8α TM-ISD)
[3] = target: M663 (CD8α SP-BCMA scFv-CD8α hinge-CD8α TM-ISD)

Binder	relative ISD-modified CAR positive rate (FACS), day 3, against empty vector control [1]	relative ISD-modified CAR positive rate (FACS), day 3, against empty vector control [2]	relative ISD-modified CAR positive rate (FACS), day 3, against empty vector control [3]
B1	82.3%	57%	46.7%
B2	70.3%	56.2%	50.9%
